Experimental data from patent US20260242454A1.

Assays:
[1] = biological target: recombinant human TGF-β1 (human) (UniProt P01137); assay: ELISA, TGF-β1 coated on plate, anti-human IgG Fc-HRP detection
[2] = biological target: recombinant human TGF-β3 (human) (UniProt P10600); assay: ELISA, TGF-β3 coated on plate, anti-human IgG Fc-HRP detection
UniProt P10600, sequence (P10600 301-412 limits assumed): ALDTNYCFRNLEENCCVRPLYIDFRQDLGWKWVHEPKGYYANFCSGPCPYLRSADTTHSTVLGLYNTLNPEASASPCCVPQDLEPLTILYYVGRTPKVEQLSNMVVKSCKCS

UniProt P01137, sequence (P01137 279-390 limits assumed): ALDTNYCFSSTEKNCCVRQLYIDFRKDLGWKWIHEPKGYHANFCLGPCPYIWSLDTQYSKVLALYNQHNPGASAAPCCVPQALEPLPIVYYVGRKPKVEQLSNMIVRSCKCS

- EC50 [1]: 2.08 nM
- EC50 [2]: 3.32 nM
Substance: M7824
